# Columns and labels:
# [1] = target: human proBNP(1-108), recombinant, produced in E. coli (non-glycosylated) (human) (UniProt P16860); assay: sandwich ELISA, hinge 76 capture, peroxidase-mAb detection; proBNP(1-108) 39 pg/ml
# human BNP(1-32) (human) [2] = assay: sandwich ELISA, L21016 capture, mAb detection; BNP(1-32) 20 pg/ml
# human BNP(1-32) (human) [3] = assay: sandwich ELISA, L21016 capture, mAb detection; BNP(1-32) 312.5 pg/ml
# [4] = target: human proBNP(1-108), recombinant, produced in E. coli (non-glycosylated) (human) (UniProt P16860); assay: sandwich ELISA, hinge 76 capture, peroxidase-mAb detection; proBNP(1-108) 10,000 pg/ml
# human BNP(1-32) (human) [5] = assay: sandwich ELISA, L21016 capture, mAb detection; BNP(1-32) 5,000 pg/ml
# human BNP(1-32) (human) [6] = assay: sandwich ELISA, L21016 capture, mAb detection; BNP(1-32) 10,000 pg/ml
# human BNP(1-32) (human) [7] = assay: sandwich ELISA, L21016 capture, mAb detection; BNP(1-32) 2,500 pg/ml
# [8] = target: human proBNP(1-108), recombinant, produced in E. coli (non-glycosylated) (human) (UniProt P16860); assay: sandwich ELISA, hinge 76 capture, peroxidase-mAb detection; proBNP(1-108) 312.5 pg/ml
# [9] = target: human proBNP(1-108), recombinant, produced in E. coli (non-glycosylated) (human) (UniProt P16860); assay: sandwich ELISA, hinge 76 capture, peroxidase-mAb detection; proBNP(1-108) 625 pg/ml
# [10] = target: human proBNP(1-108), recombinant, produced in E. coli (non-glycosylated) (human) (UniProt P16860); assay: sandwich ELISA, hinge 76 capture, peroxidase-mAb detection; proBNP(1-108) 1,250 pg/ml
# [11] = target: human proBNP(1-108), recombinant, produced in E. coli (non-glycosylated) (human) (UniProt P16860); assay: sandwich ELISA, hinge 76 capture, peroxidase-mAb detection; proBNP(1-108) 78 pg/ml
# human BNP(1-32) (human) [12] = assay: sandwich ELISA, L21016 capture, mAb detection; BNP(1-32) 156.25 pg/ml
# [13] = target: human proBNP(1-108), recombinant, produced in E. coli (non-glycosylated) (human) (UniProt P16860); assay: sandwich ELISA, hinge 76 capture, peroxidase-mAb detection; proBNP(1-108) 5,000 pg/ml
# [14] = target: human proBNP(1-108), recombinant, produced in E. coli (non-glycosylated) (human) (UniProt P16860); assay: sandwich ELISA, hinge 76 capture, peroxidase-mAb detection; proBNP(1-108) 20 pg/ml
# [15] = target: human proBNP(1-108), recombinant, produced in E. coli (non-glycosylated) (human) (UniProt P16860); assay: sandwich ELISA, hinge 76 capture, peroxidase-mAb detection; proBNP(1-108) 0 pg/ml (blank)
# human BNP(1-32) (human) [16] = assay: sandwich ELISA, L21016 capture, mAb detection; BNP(1-32) 39 pg/ml
# human BNP(1-32) (human) [17] = assay: sandwich ELISA, L21016 capture, mAb detection; BNP(1-32) 0 pg/ml (blank)
# human BNP(1-32) (human) [18] = assay: sandwich ELISA, L21016 capture, mAb detection; BNP(1-32) 625 pg/ml
# human BNP(1-32) (human) [19] = assay: sandwich ELISA, L21016 capture, mAb detection; BNP(1-32) 78 pg/ml
# human BNP(1-32) (human) [20] = assay: sandwich ELISA, L21016 capture, mAb detection; BNP(1-32) 1,250 pg/ml
# [21] = target: human proBNP(1-108), recombinant, produced in E. coli (non-glycosylated) (human) (UniProt P16860); assay: sandwich ELISA, hinge 76 capture, peroxidase-mAb detection; proBNP(1-108) 2,500 pg/ml
# [22] = target: human proBNP(1-108), recombinant, produced in E. coli (non-glycosylated) (human) (UniProt P16860); assay: sandwich ELISA, hinge 76 capture, peroxidase-mAb detection; proBNP(1-108) 156.25 pg/ml
# human BNP(1-32) (human) [23] = assay: sandwich ELISA, L21016 capture, BNP(1-32) 5 ng/ml; detection by 50B7 0.5 ug/ml alone (no 20G7)
# Chain of human proBNP(1-108), recombinant, produced in E. coli (non-glycosylated) (human) (P16860 27-134): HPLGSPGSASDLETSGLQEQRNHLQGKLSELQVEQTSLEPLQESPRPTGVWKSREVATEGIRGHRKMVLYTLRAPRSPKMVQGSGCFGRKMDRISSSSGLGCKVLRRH
# Chain of human BNP(1-32) (human) (peptide, as listed by the source): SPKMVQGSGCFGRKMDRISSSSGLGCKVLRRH
optical density (OD) [1] [OD],optical density (OD) at 490 nm (human BNP(1-32) (human) [2]) [OD],optical density (OD) at 490 nm (human BNP(1-32) (human) [3]) [OD],optical density (OD) [4] [OD],optical density (OD) at 490 nm (human BNP(1-32) (human) [5]) [OD],optical density (OD) at 490 nm (human BNP(1-32) (human) [6]) [OD],optical density (OD) at 490 nm (human BNP(1-32) (human) [7]) [OD],optical density (OD) [8] [OD],optical density (OD) [9] [OD],optical density (OD) [10] [OD],optical density (OD) [11] [OD],optical density (OD) at 490 nm (human BNP(1-32) (human) [12]) [OD],optical density (OD) [13] [OD],optical density (OD) [14] [OD],optical density (OD) [15] [OD],optical density (OD) at 490 nm (human BNP(1-32) (human) [16]) [OD],optical density (OD) at 490 nm (human BNP(1-32) (human) [17]) [OD],optical density (OD) at 490 nm (human BNP(1-32) (human) [18]) [OD],optical density (OD) at 490 nm (human BNP(1-32) (human) [19]) [OD],optical density (OD) at 490 nm (human BNP(1-32) (human) [20]) [OD],Substance,other results
0.056,0.068,0.063,0.22,0.068,0.077,0.067,0.035,0.07,0.068,0.056,0.071,0.117,0.052,0.044,0.055,0.071,0.059,0.052,0.056,"24C5 monoclonal antibody (HyTest, Turku, Finland)",optical density (OD) [21]: 0.069 OD; optical density (OD) [22]: 0.055 OD
–,–,–,–,–,–,–,–,–,–,–,–,–,–,–,–,–,–,–,–,"50B7 monoclonal antibody (HyTest, Finland)",Optical Density 490 nm (human BNP(1-32) (human) [23]): 1.3 OD
0.028,0.034,0.027,0.158,0.041,0.048,0.035,0.028,0.024,0.024,0.033,0.032,0.041,0.028,0.024,0.032,0.022,0.029,0.055,0.031,"26E2 monoclonal antibody (HyTest, Turku, Finland)",optical density (OD) [21]: 0.031 OD; optical density (OD) [22]: 0.027 OD
